Assay results published in paper PMC3492541 (Nature structural & molecular biology, 2012).
Where a chain is given by its changes, count along the chain named.

B1: GST 7D (GST tail phosphomimetic in both zone 1 and zone 2) (domain or fragment, human, UniProt O14777 1-80, looked up)
chain: MKRSDVSDGGAGRLDMQELRSQDVNKQGLYTPQTKEKPTFGKLDINKPTSERKVDLFGKRTDGHGSRNDQLGIFSSSEKI
B2: GST tail phosphomimetic in zone 2 (domain or fragment, human, UniProt O14777 1-80, looked up)
chain: B1 chain with D44S, D55S, D62S, D69S
B3: GST 4D (GST tail phosphomimetic in zone 1) (domain or fragment, human, UniProt O14777 1-80, looked up)
chain: B1 chain with D5S, D8S, D15S

target: taxol-stabilized microtubules (UniProt Q6B856 1-439); assay: co-sedimentation

| reduction of microtubule binding relative to GST 1–80 [%] | Binder |
| --- | --- |
| 80 | B1 |
| 20 | B2 |
| 60 | B3 |
